The record followed here is the DeepSol protein solubility set.

The nature of the data set: soluble on expression in E. coli; label from the status in PepcDB or PDB records.
Turning to “MAHHHHHHMLRVSCRFFGALQEIFSRGQGVWNLDFGNSPTTEDLIFNSAPKTSTPPFHVLDLEGNIVNKINEPVVPKETLVKIMETMIRSNTIDNILLEAQRQGRISFYLTALGEEATVVGTAAGLEIRDEAFLQYREAGFLLYRGYNIPQLVAQCMGNVEDVLKGRQMPIHYGSRELNVHMVSSPLATQIPHAAGAGYAFRLENEELSDESKSRVAVVIFGEGAASEGDFHGGVNFAAATGSNTLFVVRNNGYAISTPARVQYKGDGVLARGIGYGIPSARVDGQDVLAILQAVQQARQIIRTTNQPVLIEALCYRLQHHSSSDDSGMYRSSDEIENFLALSPLDRFEKFLVKRDLWTAEHTGALAKQVREELLQELRRQELLPHWPADVMHDDVYKVKTPDLVKAQKELQAHYERNRGFYGK”, the “soluble on expression in E. coli” value is recorded as “not soluble”.
On to “MKFDTIINQPVIETERFDLRPLRKSDMGLIEHYARDERVARMTTSIPHPLPPGMAEGFVARAMSEERTEDVWAMDATRDGGPELMGLISLERMDRNQSEVGYWVAPVFWNTGIASMAVEALVNANPLGNATMFASVFQDNPASARVLTHCGFQYLGDAESYSVARDAAVPTWTYSRKL”, for which the “soluble on expression in E. coli” value is on record as “not soluble”.
On to “QALEYSGTKRFVYVIDENNKATRQEVLLGARVDNEVVIESGVEIGDKIVVQGIVNMRDGVEVKEIVAPLKANTTDVTRNDSESVEEEN”, for which the “soluble on expression in E. coli” value is recorded as “not soluble”.
As to “MAEDIEEILAEIDGSQIEEYQKFFDAFDRGKQGYIMATQIGQIMHGMEQDFDEKTLRKLIRKFDADGSGKLEFDEFCALVYTVANTVDKETLEKELREAFRLFDKEGNGYISRPTLKALLKEIADDLTDQQLEEAVDEIDEDGSGKIEFEEFWELMAGESD”, the “soluble on expression in E. coli” value is reported as “not soluble”.
Regarding “MSHQCSLSELNENLVPFTARQIKSSLIWCAEDVRNPDELQNACSYIIDPGSTASAKVFHAERYGGSGIQRNGGGARCGFDGNYQVKGIGSNPLVGEGTDERHSNGALGAVHAIYEALWGEVLAQILPYSAVRVRAVLLTDLYTEKAFERSGRKSRRALLVREPVVRPAHFERAPYFQVKPEYSSLLIHDACRVRSVIHKLPGYLPVPPEEIDAEARTDPRIYCIEGLCELARREAWQMAFCRTRFLRLTTSPSNIAMDGRLMDFNGLSCLFPGDSPADFGYKLRLAELAKEPMVLMQGLSDLCLYIGKYMFDPDFTLAARLKVEEIFQKTFHEACYYCYLELLGIPGEFITQKEIPDILKELVNSFVALLNKYYEKSHAQDIVNQDGSPLQKLVVTLIHHRHNQKQALNSSIKNDVYFTVAQQCFSQAIHWLTQGSTRRQINASLLLKEIEHHTMKRLQPREELRKENMCEKIAILLDNHGDDPLFLQEAISDMKNFMLKFSRDAFGYLEPIRNTV”, the “soluble on expression in E. coli” value is given as “not soluble”.
With “MVADLMLCTNFFIFTGGPGSGKTAVLNELNTWGYLTVSEVARSIIQKQQADGGDAIHTGNRKAFRDLMLEQSIADYCKMQSEEKIVFFDRGIPDLYGYSKAFCGEASKEVNEAVGRFRYNKTVFIFPPWPEIYENDDERQQDYQEALQTYYAVKEGYFDCGYVLLEVPKCPIKDRANFIFQMISKNGLEHHHHHH”, the “soluble on expression in E. coli” value is recorded as “soluble”.
For “MAHHHHHHMSMKGSKNMLSPLVGNIYNNVYDHKELKMKSINEQNNMGSNNYNINYVNNNNSTLSNNNHSKQNLCYNNFSSHSPSINKDSIHEEKKNNFYEQHNYIDENATHHTMEEENYKNFKNSKNYEHTIDEDVMQNEYSNIIKDNHLKKKKKKKNIHHLNNKDINNTNLNYETNEQVLIDLPKNHLLNKLTTSIIHSINPHLISEYTHEDITKRTNKISTLKKKKKKKKIEREEIYESDVDNTNGEDNTNDVDNTNDEDNTNDEDNTNDGDNEQIHYHKQFDDQIQKQKNKQNKQKKEYKEFDVYETKGYIPLSNEHKQNKSVCFLDNHVKYYTQQNNVPYEKNIIYENNLNDHQAHSYYNNTLNQFTPNSDILNYNNYINKEYIQGIYNTNNYNIKQDSVYEPNEQVMFMSPQEEKYIYMNASPNNIIRNNDMVFYSGQLDNEQMNININNNNNINNNDNNINSSSSVNDGCFNLHLNNMNNIFNTCTNTQNKQKTHKSFFCNSSAKNVINNENNVKNNKTEILIYKNDKTNNYQNNNQTKQNIQSNNHYNNNNNNNGNHINKFRFFTPTSNNVFVRTRSLTPNTYQKKKKNSFFACSPLKDINLNRQKSLPPQLYTTQDITQPIYTHDISYNLSNKNNIIQNDPYNNIQNITTTLSYPLVNSNFVHLYPYQNSNTNNQIKKIENFNVSKNYMNESSTQTSTETSSKSSKDTSLWNTQIHLLNEKIKNMKTKMENITKEKNEVNELCKMYKVIKNHINVNV”, the “soluble on expression in E. coli” value is given as “not soluble”.
As for “MGSDKIHHHHHHMKATLKSLRETKANPAVSIFVKTHREHPANDKDPIALKNQLKVVEERLTNEYDKRTATTILDNIHAKTKEHNHNLNLDTLAIFASTDDVQVIRMPIDTTERVVISHRFATRDLVRDMASAVHYYTLVLTRDKARLIEVSNDRVIREFDLDDTAQNNMENIPFPIDNNGLHTTSDGGSDRSANNDSSALKEFFNQVDKSVQELWGEHKMPLVVVGDTKNIGYYKDVCDRPDNIIATVSNATNLEEGSAQHIINSVQEAVEGYRTSLHQAALGEIDKARGANRLQTDLQEVYRSAFQGVGDTLYVRRGYIQPAKIDEKAQTLSLADDSGAEGITDDAIGEIIEHVIHNGGKAVFMPQDIMSEDQPIALVTRY”, the entry is “not soluble”.
Turning to “MGSDKIHHHHHHKSTFKQELAVGASFGLNFSSVSFAPKVPTKMKLGFNGGATIRWNTEPNLGIQAELNFTQHGWEEKFEEKPQYKYSRTVNYMELPFLTHIHFGSKRVRVFVNLGPKIGYALSESTESNLNGENPNANRPDEQHTLEVQKKFDWGLCGGPGIELRTGIGSFLLEGRYYYALGDMFNSRKGDTFSKSSSQIISAKLTYLIPIFSK”, the “soluble on expression in E. coli” value is “not soluble”.
For the sequence “MGSDKIHHHHHHVPLLFGTAGVPLSAKERSTEAGVKRVRELQLDAMEVEFVQGVRMGEEKAQKIAQIAVEEKVALSCHGPYWINFNSQEPEKVAASRERLLHSARISKILGVKSVVFHPAFYHQDDPQVVLVRTAGELMKVREILDAEGNDVILRPETTGKPSQLGTLQEVLTLAQAVPGVLPCIDISHLHARSNGRINTYDEFCQVLEAAAESLGDRWVKHVHFHVSGIDYGVKGEKKHLILKESDLRYPELMKAFHTFGVEGLVICESPNLEEDALLLQTTYRTMA”, the “soluble on expression in E. coli” value is recorded as “not soluble”.
For “MGSDKIHHHHHHMKFFNREKEIHKILSIIEGEPNLIYFIYGSINSGKTALINEIINNRLDKNKYIVFYFDLREIFISKYDDFIEVLFEEYEGDKSPIEVIKAIINDLPSLYGIPIPKNTLNEIFKKKTTKNVFRYITNVLMDIKREGKQPIIIIDELQKIGDMKINGFLIYELFNYFVSLTKHKHLCHVFCLSSDSLFIERVYNEAMLEDRVDYILVDDHRGGYAPSIGILPQIESGVAFGNPALEYSNRGFASMRGEYILVDDFDKETALKFMDFLAKENNMSLTNEDKELIYNYVGGKPVLIIKVIDKLRYENLNDILDFMLKDATQKLKYFLEDVKEEDEELYKKVVDALKLFKEDYEIEDIKIPKKIREFLIKRNILFLNPIEGILKPQSFLVWNAIKKVL”, the “soluble on expression in E. coli” value is on record as “not soluble”.
Consider “MAPSLDSISHSFANGVASAKQAVNGASTNLAVAGSHLPTTQVTQVDIVEKMLAAPTDSTLELDGYSLNLGDVVSAARKGRPVRVKDSDEIRSKIDKSVEFLRSQLSMSVYGVTTGFGGSADTRTEDAISLQKALLEHQLCGVLPSSFDSFRLGRGLENSLPLEVVRGAMTIRVNSLTRGHSAVRLVVLEALTNFLNHGITPIVPLRGTISASGDLSPLSYIAAAISGHPDSKVHVVHEGKEKILYAREAMALFNLEPVVLGPKEGLGLVNGTAVSASMATLALHDAHMLSLLSQSLTAMTVEAMVGHAGSFHPFLHDVTRPHPTQIEVAGNIRKLLEGSRFAVHHEEEVKVKDDEGILRQDRYPLRTSPQWLGPLVSDLIHAHAVLTIEAGQSTTDNPLIDVENKTSHHGGNFQAAAVANTMEKTRLGLAQIGKLNFTQLTEMLNAGMNRGLPSCLAAEDPSLSYHCKGLDIAAAAYTSELGHLANPVTTHVQPAEMANQAVNSLALISARRTTESNDVLSLLLATHLYCVLQAIDLRAIEFEFKKQFGPAIVSLIDQHFGSAMTGSNLRDELVEKVNKTLAKRLEQTNSYDLVPRWHDAFSFAAGTVVEVLSSTSLSLAAVNAWKVAAAESAISLTRQVRETFWSAASTSSPALSYLSPRTQILYAFVREELGVKARRGDVFLGKQEVTIGSNVSKIYEAIKSGRINNVLLKMLA”, for which the “soluble on expression in E. coli” value is listed as “soluble”.
For the sequence “MGHHHHHHSHMTDPLAPEGDNRVWYMDGYHNNRFVREYKSMVDFMNTDNFTSHRLPHPWSGTGQVVYNGSIYFNKFQSHIIIRFDLKTETILKTRSLDYAGYNNMYHYAWGGHSDIDLMVDESGLWAVYATNQNAGNIVVSRLDPVSLQTLQTWNTSYPKRSAGEAFIICGTLYVTNGYSGGTKVHYAYQTNASTYEYIDIPFQNKYSHISMLDYNPKDRALYAWNNGHQILYNVTLFHVIRSDEL”, the “soluble on expression in E. coli” value is “not soluble”.
Turning to “AHHHHHHGSKKFRFFVSGMPGVGKTTLAKRIADEIKREGFKVGGIITQEIRSGARRSGFRVIALDTGEIGRLAYVGQGYPRLGRYVIDVESFEKVAIPAISRALREGDLIVIDEIGPMEFKSNEFLKALGLVLRSEKPLLATVHRRFVERYRPLGEYYWLTPENREAVFSEILVKIKELLRENENAGNKAQD”, the “soluble on expression in E. coli” value was “not soluble”.
As to “MGSDKIHHHHHHMGKFDQITYFIAVVEEHGFAAAARKFGVSTAAVSRQIARLEAELKAELLVRTTRKLSLTDIGARYYQQCKKTLLELNEAEIAIANSRNEAVGILNVTSSRYFAMRFLLPYLPEFMELNPKLQIKIELAERFPDLAQENVDVLFGVSMEGPPELVRKRVSTTRYVLCASPDYLAKNGIPKTPSELGKHRYITHSMRNPDNLVTFKDNEQIYVEPVLWLNDSRALCECALLGMGIIKLHEYIVTEALQDGRLIEVLPEFQESSLSVYLYYQASRYLQPKIRRFIDFFTK”, the “soluble on expression in E. coli” value is reported as “not soluble”.
With “MPANKAKYKIIKQQVKNNILSARYKIGDRLPTESDFMAEFDVSRFTIRRAIDELVNENFVRRVQGNGMYIKDWHKVNKADEDLRTIAVITTHVADYIFPNIINAIDKVISDAGYSLILANTHNDPKRERDNLLRLLKLKPSAWIIEPTQSAVNRENLDLYQQIKKLDVPAVFINSSYPGIGFPCLKTDDRGSLSELTNYLFSIGHRRIMGVFQIDDIQGVERMKGFADAYLGHPYFSDRQTTIMYKSTDDYDEIFTRITNFYKNQTVDKPDAIICYNDQLAIALIDNLKEQGWKIPEDISIIGFDDYNISRYITPTLTTLSHPKSQMGRDAGKMILNLIDNKAVKSITYYPELVLRKSVMPI”, the “soluble on expression in E. coli” value is “not soluble”.
In the case of “MGSDKIHHHHHHMRLYESLLEMCLNKAWEHQTLALENPSVACMVLDKNHEILSLETHKKAKTPHAEVLAAQSALKILRPSLKNDLEKLEDPKTLSDFLKTHHDNAFTDCVFLITLEPCNSYGKTPACSELLEILKPKRVVIATEENEAKKGGLARLQKARIETIICHNLENKAKDLLLPFRVMEQKGRFNLFKLALRMNGDYHHGKITGQKSVIFTHNQRAICDTLIVSGKTIRTDNPLLDARFCDSFYQNKNPNIAILSKRSIDPNSKVFSAPNRLVNTFHDPKDLPLEKGFNFIEGGWELFESLRDKIDALLLHSHASMIGEAFKALALKTPFKGRLLHAQILENEALLWIENS”, the “soluble on expression in E. coli” value is listed as “not soluble”.
As to “MTHPIIHDLENRYTSKKYDPSKKVSQEDLAVLLEALRLSASSINSQPWKFIVIESDAAKQRMHDSFANMHQFNQPHIKACSHVILFANKLSYTRDDYDVVLSKAVADKRITEEQKEAAFASFKFVELNCDENGEHKAWTKPQAYLALGNALHTLARLNIDSTTMEGIDPELLSEIFADELKGYECHVALAIGYHHPSEDYNASLPKSRKAFEDVITIL”, the “soluble on expression in E. coli” value was “soluble”.
